From the domain aggregation screens of Martell et al. (2025)

Assay: soluble fraction after stress (log2 fold change); higher = more stays soluble; pooled small domains, quantitative proteomics
Conditions: stress: 50 degC
Method in brief: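 Pooled custom libraries of small protein domains were measured in a high-throughput format, with quantitative proteomics as the read-out. Each library was stressed at 50°C. Aggregation propensity is given as the base-two logarithm of the fold change in how much of each protein stays soluble after the stress. Higher values mean a larger share of the protein remains in solution.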

In the case of “HMDSVSAVRTTHLNSYVLLLEKDGMAAATISRYIASMKGFFEYLFREHMIEEDPAFTLKPPKV”, the “soluble fraction (log2)” value is reported as -0.0799.

For “HMYIDANTALLAKRIQAKNGFLPLSDKSTAEEIYAEFGISKKAFKKALGALYKERLVRIGDEGVVWV”, the “soluble fraction (log2)” value was -1.79.

In the case of “HMKFDVNAAIRAVLNVTVDKGATLERIMKETNLTSDQLVLPIALLMKTERLHFKRSGTHEVYVSVGKAPDK”, the “soluble fraction (log2)” value is reported as -3.02.

In the case of “HMRTKEGLASQLEKIPGIGPVKRKALLKKFGSIDAIAAASKEELMLTDGITSSLADAIRDYF”, the “soluble fraction (log2)” value is reported as 0.00122.

In the case of “HMVFTEEEMLEKIKEYLSTNSYINRRAMETLFNLRQSTALKWLGHFTEIGVLRKEGERNYPVYFLNN”, the “soluble fraction (log2)” value is reported as -0.296.

In the case of “HMGIVAGGTQSIATLRAIDTTDAQLYPDKILINVEDAGLYRLDRQSTATDDGNQVIKPTVGVGRWLKMTS”, the “soluble fraction (log2)” value is reported as -0.11.

For “HMHKIRRQTKITKSLLDQIEGIGSSRKKALLNHFGSAKAVGEAGETDLGTVKGISNSLAKKIYDFFHAT”, the “soluble fraction (log2)” value was -0.281.

With “HMVDLAPTEEIIKNLPNNSRSLLIPTLQKIQNAYRYLPSPAMELLSEFLNVTRAEIYGVISFYPSLL” the “soluble fraction (log2)” value was 0.0871.

In the case of “HMFISVDGLIHMGRTHLVILGGVEFARGDMIPETGEVVKSIGADSVVLELPDTGMRRTLNFV”, the “soluble fraction (log2)” value is reported as -2.92.

For “HMVWTAGEVVERIRERVGHPATIRELMQVLTIPPEDRHRFRRRIMQLVEAGELIRIRGNRYGLAD”, the “soluble fraction (log2)” value was -2.3.

In the case of “HMNYNEKGEYTRTLTSGSETAVMTYRNFGETLDVALFKNGVQTDSLRLIKSEPGVLYRQSNGQFEKI”, the “soluble fraction (log2)” value is reported as 0.0586.

With “HMKIDLTPQEEKIYSVLETELTLDEIIMKTSIKAGEALAILMDLELKKLVASVAGGKYRRKA” the “soluble fraction (log2)” value was 0.0271.

For “HMGSIDYLVGSRLRQYRRLRGYSLIEFSAMLHRSKSAISKYERGEVSIDLRTLNEMARLLDIPLSGLLL”, the “soluble fraction (log2)” value was -4.56.

For “HMRSYTPGSAFRLSSVPVYNAETGPSIGVRSGTYYIHSLPVSNGRIRMTNLISRVGKPGQVSFWVEISR”, the “soluble fraction (log2)” value was -2.45.

With “HMKNFAPVWGEEGAEFGKEVDTGFRLRIVEKEKDVNDLFEVIQKHTIQSQWKPGSTGTESIYKRI” the “soluble fraction (log2)” value was 0.37.

With “HMLPDYLIELKKKADSGDAVSQNDIGNIYLYGLPRVNIYPDEKNIGIGIDYLYKAAWQDQVNAMTTI” the “soluble fraction (log2)” value was -0.0456.

In the case of “HMSQSIGQEKALSIALADAGVQKENALGLEVKGEYDDGQLLYEVEFRAGGVEYEYEVRASDGRIVKAERD”, the “soluble fraction (log2)” value is reported as 0.13.

With “HMNSTRAPYLLDFEEDAAIREARRAGLVPRIARQPSGEPVGRVILQSHDYDYPMKRGDTILITISSG” the “soluble fraction (log2)” value was -0.737.

With “HMSVPSLVGKTDSEAQSAIKSAGLKVGTVTYQYSDETEKGYVVSQSPYSGNKVNAGSTVNIVVSKGK” the “soluble fraction (log2)” value was -0.0367.

With “HMVTKTTYAYERLKREIMDGTLGQGEKLVVNAISQRYQVSPMPIREALLKLEQEGLVQSAPHRGAWVHK” the “soluble fraction (log2)” value was -0.345.

With “HMSKKMLASIFDTISGIGKKRLKKIWDNYTSLNELKDDSLENIYAKTQIPINLITKIKEKLE” the “soluble fraction (log2)” value was -0.37.

With “HMSPVKAPLPGVVLDIHVSVGQEVKASDTVVTLEAMKMENAIKAGVDGKVASISVGKGDSVLEGAVLLTI” the “soluble fraction (log2)” value was 0.0738.

For “HMHTPSGALLSAIEKEWGSFDNFKKEFTTAATSLFGSGWVWLAKDKKGKLYILSENNAGNPITKGYTPILG”, the “soluble fraction (log2)” value was -0.262.

With “HMAATISPEIQAEAEKAAALGVESIKNFMASLKEKNPEQHALFSDSEKRRLYAIARKADLNTTQQG” the “soluble fraction (log2)” value was -0.103.

With “HMKFYIHEIIGFNAVDKVAGIVGKVININEDSPQKKLVVNYNGKEVFIPLVDEIVRKIDKQKNEVLITMP” the “soluble fraction (log2)” value was 0.155.

For “HMIKSMTGYGSAKGTVEGIEVSVELKSVNNKFLDTSIRLPRSFLFAEETIKQAVSSHISRGKVDVFVSVDS”, the “soluble fraction (log2)” value was ≥ 0.62.

With “HMETLEDHRKKTRQQLFDALSHLLQTSTFESLTMAKIAEEAGVGRTAVYNHFQDKEALLLAFITYETGQ” the “soluble fraction (log2)” value was -1.05.

For “HMVTEKNALTIEIEDLTKRFGNQRESLLPILQEVQLKHGHISDFAQQEIARLLDIHPVEVYGVVTFFSFLS”, the “soluble fraction (log2)” value was -2.21.

For “HMNALVAKYKQGVTEEQQQGQGIIIIKRVVVRDQEAWVYEKKIFDWGGVSYFRDKQRITASTFNQETAL”, the “soluble fraction (log2)” value was -2.86.

With “HMEMVSMPGLTGSTLEFATKTLTENELKYEVVYIVDASAESGLIIRTYPTEGEMVSKKTSTIYLYIKE” the “soluble fraction (log2)” value was -0.756.

In the case of “HMDGVLLDHLDGFVTTRRGVEAWLEQPTSFNKPSILLVAADGESTRRAIPSIAFGYDFASRHDIPAYDAG”, the “soluble fraction (log2)” value is reported as -0.496.

In the case of “HMPMNISDIIKQAREELGMTQEDLAERLEVSRQAVSKWELGASVPSPENLRLLEELLGVELPAP”, the “soluble fraction (log2)” value is reported as -0.0297.

For “HMAEVPSLIGKSLDAAKQAIIDAGFKVGSVSYDNSDSYGKGQVMWQQYEPSTKVKKGSSISIKVSKGS”, the “soluble fraction (log2)” value was 0.00591.

For “HMPEVYSFEVNEGAAGKRLDIFLSGEIEGLTRSFIQKLISEGMATVNQEPPRASYRVKTRDLVELQIPDPE”, the “soluble fraction (log2)” value was -0.488.
